From US20080045463

Biological target: T1, biotinylated HIF-1α ODD peptide, Q16665
T1 chain: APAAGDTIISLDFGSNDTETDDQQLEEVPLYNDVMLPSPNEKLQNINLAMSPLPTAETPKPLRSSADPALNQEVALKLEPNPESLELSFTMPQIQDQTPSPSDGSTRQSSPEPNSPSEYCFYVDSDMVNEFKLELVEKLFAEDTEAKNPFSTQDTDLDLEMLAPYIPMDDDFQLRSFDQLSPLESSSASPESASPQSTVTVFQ

B1: Human HPH-2 (protein)
chain: MANDSGGPGGPSPSERDRQYCELCGKMENLLRCSRCRSSFYCCKEHQRQDWKKHKLVCQGSEGALGHGVGPHQHSGPAPPAAVPPPRAGAREPRKAAARRDNASGDAAKGKVKAKPPADPAAAASPCRAAAGGQGSAVAAEAEPGKEEPPARSSLFQEKANLYPPSNTPGDALSPGGGLRPNGQTKPLPALKLALEYIVPCMNKHGICVVDDFLGKETGQQIGDEVRALHDTGKFTDGQLVSQKSDSSKDIRGDKITWIEGKEPGCETIGLLMSSMDDLIRHCNGKLGSYKINGRTKAMVACYPGNGTGYVRHVDNPNGDGRCVTCIYYLNKDWDAKVSGGILRIFPEGKAQFADIEPKFDRLLFFWSDRRNPHEVQPAYATRYAITVWYFDADERARAKVKYLTGEKGVRVELNKPSDSVGKDVF
^35S-pVHL pulldown enzyme assay activity (Pro564 hydroxylation of the peptide): the ^35S-pVHL pulldown enzyme assay activity of each HPH homologue was dependent on 2-OG, Fe(II), and ascorbate

B2: Human HPH-1 (protein)
chain: MPLGHIMRLDLEKIALEYIVPCLHEVGFCYLDNFLGEVVGDCVLERVKQLHCTGALRDGQLAGPRAGVSKRHLRGDQITWIGGNEEGCEAISFLLSLIDRLVLYCGSRLGKYYVKERSKAMVACYPGNGTGYVRHVDNPNGDGRCITCIYYLNKNWDAKLHGGILRIFPEGKSFIADVEPIFDRLLFFWSDRRNPHEVQPSYATRYAMTVWYFDAEERAEAKKKFRNLTRKTESALTED
^35S-pVHL pulldown enzyme assay activity (Pro564 hydroxylation of the peptide): As exemplified by HPH-1, the ^35S-pVHL pulldown enzyme assay activity of each HPH homologue was dependent on 2-OG, Fe(II), and ascorbate
